{
  "source": "paper PMC4896396",
  "about": "(Journal of the American Chemical Society, 2016)",
  "target": "the molecule itself",
  "test": "SEC-SAXS",
  "data": [
    {"protein": "full-length rat phenylalanine hydroxylase (wt-PheH) (enzyme, UniProt P04176 1-453, looked up) MAAVVLENGVLSRKLSDFGQETSYIEDNSNQNGAISLIFSLKEEVGALAKVLRLFEENDINLTHIESRPSRLNKDEYEFFTYLDKRTKPVLGSIIKSLRNDIGATVHELSRDKEKNTVPWFPRTIQELDRFANQILSYGAELDADHPGFKDPVYRARRKQFADIAYNYRHGQPIPRVEYTEEEKQTWGTVFRTLKALYKTHACYEHNHIFPLLEKYCGFREDNIPQLEDVSQFLQTCTGFRLRPVAGLLSSRDFLGGLAFRVFHCTQYIRHGSKPMYTPEPDICHELLGHVPLFSDRSFAQFSQEIGLASLGAPDEYIEKLATIYWFTVEFGLCKEGDSIKAYGAGLLSSFGELQYCLSDKPKLLPLELEKTACQEYSVTEFQPLYYVAESFSDAKEKVRTFAATIPRPFSVRYDPYTQRVEVLDNTQQLKILADSINSEVGILCNALQKIKS", "values": [
      {"measurement": "stoichiometry N", "result": 4}
    ]}
  ]
}
